Data published in paper PMC3087504.
One block for each substance: values may come before it.

Key:
MBP-TAp63α (mouse) [1] = assay: SEC-MALS; Superdex 200 5/150 GL, room temperature, 80 μl of purified protein of ~1 mg/ml, 0.3 ml/min
MBP-TAp63α (mouse) [2] = assay: native MS; LILBID-MS, ~10 μM protein dialyzed against 10 mM potassium phosphate pH 7.6 without NaCl
MBP-TAp63α (mouse) [3] = assay: SEC; purified proteins from E. coli, 3–15 μM, Superose 6 10/300 GL, 16°C, 10 mM potassium phosphate pH 7.6, 200 mM NaCl; column calibrated with globular standards
MBP-TAp63α (mouse) [4] = assay: AUC; sedimentation velocity, 45,000 rpm, 4 μM protein, 4°C, 20 mM potassium phosphate pH 7.5, 200 mM NaCl, 2 mM dithiothreitol
MBP-TAp63α (mouse) [5] = assay: AUC; sedimentation equilibrium, 7000 and 9000 rpm, 1–8 μM monomer, 4°C, 20 mM potassium phosphate pH 7.5, 200 mM NaCl, 2 mM dithiothreitol
[6] = molecular target: His-MBP-ΔNp63α^PPR (mouse); assay: SEC; purified proteins from E. coli, 3–15 μM, Superose 6 10/300 GL, 16°C, 10 mM potassium phosphate pH 7.6, 200 mM NaCl; column calibrated with globular standards
[7] = molecular target: TAp63α (murine, N-terminal His6-tag, from pBH4) (mouse); assay: SEC-MALS; Superdex 200 5/150 GL, room temperature, 80 μl of purified protein of ~1 mg/ml, 0.3 ml/min
[8] = molecular target: TAp63α (murine, N-terminal His6-tag, from pBH4) (mouse); assay: SEC; purified proteins from E. coli, 3–15 μM, Superose 6 10/300 GL, 16°C, 10 mM potassium phosphate pH 7.6, 200 mM NaCl; column calibrated with globular standards
p63 (Homo sapiens) = p63 (Homo sapiens) (UniProt Q9H3D4); details: cited from earlier work
[9] = test system: T1, MBP-TAp63γ (Mus musculus), O88898-5; assay: fluorescence anisotropy; details: 10 mM potassium phosphate pH 7.6, 200 mM NaCl, room temperature, 30 min, 15 nM p21 DNA (300 nM for controls), protein 0.1-15 µM monomer
T1 sequence: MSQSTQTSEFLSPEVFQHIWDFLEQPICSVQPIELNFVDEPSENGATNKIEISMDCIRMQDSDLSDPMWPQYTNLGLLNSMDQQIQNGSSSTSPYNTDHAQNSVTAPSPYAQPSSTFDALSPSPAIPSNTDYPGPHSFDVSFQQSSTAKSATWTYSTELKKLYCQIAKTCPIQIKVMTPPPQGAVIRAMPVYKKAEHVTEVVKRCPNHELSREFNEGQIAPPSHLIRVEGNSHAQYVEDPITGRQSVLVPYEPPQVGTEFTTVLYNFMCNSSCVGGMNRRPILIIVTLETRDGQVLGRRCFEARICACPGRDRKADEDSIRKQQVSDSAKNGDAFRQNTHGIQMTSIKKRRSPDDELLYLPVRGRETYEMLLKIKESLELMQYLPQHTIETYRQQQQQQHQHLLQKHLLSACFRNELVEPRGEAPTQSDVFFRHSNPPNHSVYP

[10] = molecular target: T2, MBP-TAp63αFTL (Mus musculus) (UniProt O88898); assay: fluorescence anisotropy; details: 10 mM potassium phosphate pH 7.6, 200 mM NaCl, room temperature, 30 min, 15 nM p21 DNA (300 nM for controls), protein 0.1-15 µM monomer
T2 sequence: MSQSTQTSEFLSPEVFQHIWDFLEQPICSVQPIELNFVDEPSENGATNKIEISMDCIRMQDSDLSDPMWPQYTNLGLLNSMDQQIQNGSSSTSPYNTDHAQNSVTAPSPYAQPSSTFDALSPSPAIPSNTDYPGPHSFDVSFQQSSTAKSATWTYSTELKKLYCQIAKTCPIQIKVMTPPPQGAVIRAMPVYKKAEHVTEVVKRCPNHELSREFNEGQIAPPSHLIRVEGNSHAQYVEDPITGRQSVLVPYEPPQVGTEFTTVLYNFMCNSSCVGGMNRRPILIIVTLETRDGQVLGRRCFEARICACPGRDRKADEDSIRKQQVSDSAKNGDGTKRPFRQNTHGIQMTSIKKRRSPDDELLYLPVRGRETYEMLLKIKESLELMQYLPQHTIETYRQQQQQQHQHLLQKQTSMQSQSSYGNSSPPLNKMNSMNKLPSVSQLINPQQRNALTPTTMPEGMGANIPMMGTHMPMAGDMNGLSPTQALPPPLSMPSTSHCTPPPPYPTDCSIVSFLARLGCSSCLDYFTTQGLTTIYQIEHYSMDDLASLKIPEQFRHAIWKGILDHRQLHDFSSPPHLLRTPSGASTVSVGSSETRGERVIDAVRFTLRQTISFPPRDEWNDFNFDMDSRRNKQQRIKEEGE

[11] = second binding site of two-site fit, suggested unspecific
[12] = two-site fit, first site, monomer concentration

p63, sequence (Q9H3D4 whole entry): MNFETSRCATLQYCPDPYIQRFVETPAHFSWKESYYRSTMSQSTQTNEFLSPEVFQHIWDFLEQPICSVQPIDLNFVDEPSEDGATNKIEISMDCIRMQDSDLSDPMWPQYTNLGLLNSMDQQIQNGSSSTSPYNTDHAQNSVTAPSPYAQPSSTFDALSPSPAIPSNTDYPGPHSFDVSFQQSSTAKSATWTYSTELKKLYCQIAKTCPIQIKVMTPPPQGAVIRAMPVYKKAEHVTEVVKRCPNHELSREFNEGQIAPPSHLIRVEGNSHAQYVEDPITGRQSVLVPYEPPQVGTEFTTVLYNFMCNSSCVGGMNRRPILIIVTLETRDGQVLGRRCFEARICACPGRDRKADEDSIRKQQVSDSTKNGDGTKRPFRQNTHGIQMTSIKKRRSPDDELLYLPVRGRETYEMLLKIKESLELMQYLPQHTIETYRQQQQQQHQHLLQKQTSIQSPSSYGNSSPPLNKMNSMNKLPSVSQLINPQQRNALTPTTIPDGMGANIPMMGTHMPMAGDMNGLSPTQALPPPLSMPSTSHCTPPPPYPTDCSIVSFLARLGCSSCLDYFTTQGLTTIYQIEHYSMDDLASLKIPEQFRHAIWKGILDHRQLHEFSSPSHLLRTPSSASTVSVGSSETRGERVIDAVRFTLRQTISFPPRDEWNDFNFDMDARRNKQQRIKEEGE

Substance: MBP-TAp63α (natural protein)
stoichiometry N (MBP-TAp63α (mouse) [1]): 2 | stoichiometry N (MBP-TAp63α (mouse) [2]): 2 | stoichiometry N (MBP-TAp63α (mouse) [3]): 2 | stoichiometry N (MBP-TAp63α (mouse) [4]): 2 | stoichiometry N (MBP-TAp63α (mouse) [5]): 2

Substance: p63 (from UniProt Q9H3D4)
Kd (p63 (Homo sapiens)): 12 nM

Substance: GGCAGGAACATGTCCCAACATGTTGAGCCG (double strand) [p21 promoter response element]
Kd [9, 11]: 20800 nM | Kd [9, 12]: 340 nM | Kd [10, 11]: 47100 nM | Kd [10, 12]: 380 nM

Continued, values first:

stoichiometry N [6]: 4
Substance: His-MBP-ΔNp63α^PPR (natural protein)

stoichiometry N [7]: 2 | stoichiometry N [8]: 2
Substance: TAp63α (murine, N-terminal His6-tag, from pBH4) (natural protein)
